We go through two substances from article PMC3501574.

This assay concerns the target Biotinylated IL-2Rβ (human) (UniProt P14784). The assay can be described thus: SPR. (In general: SPR reads the build-up and loss of mass on a sensor chip optically.)

Broadly, the Kd is a measure of binding affinity in units of concentration. In the case of IL-15 (1–114) (ligand), the Kd came out at 0.438 µM.
Substance “IL-15—IL-15Rα complex (IL-15 co-expressed with IL-15Rα (1–64))” gave a Kd of 0.003 µM.
